# Assay: yeast display, Sf9 membrane polyspecificity reagent, FACS + sequencing; frameworks hold sequencing errors
# Summary of the method: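 Nanobodies came from a synthetic yeast display library in Saccharomyces cerevisiae BJ5465, induced with galactose for 36–48 hours and stained for 1 hour at 4 °C with 10% biotinylated, detergent-solubilized Sf9 membrane reagent. Cells were enriched on streptavidin microbeads and then FACS-sorted, with low and high (top ~1%) gates set on anti-HA fluorescence for expression and streptavidin fluorescence for reagent binding. Each polyreactivity label reflects the gate a clone came from. Genes were amplified by colony PCR, sequenced by MiSeq 2 × 250 and filtered by CDR length.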
row,Sequence,polyreactivity (PSR sort gate)
1,QVQVVQSGGGLVQAGGSLRLSCAASGSTFPGNAMGWNRQAPGKERELVASIRSSAASTYYADSVKGRFTISRDNAKNTVYLHMNSLKPEETAVYYWSVRSYRRFTNLSYRYDYWGQGTQVSVSS,high polyreactivity
2,QVRLVESGGGLFQAGGSLRISCAASGRIFNTYAMGWYRQAPGKERELVAAIRWSSGSTFYADSVKGRFTISRDYAKNTVYLQMNSLKPEDTAVYYCAADNWAVNAYYGYIYDYWGQGTQVTVSS,low polyreactivity
3,QVRLVESGGGLVQAGGSLRLTCAASGSTFTTYALGWYRQAPGKERELVAAISSGGDTKYADSVKGRFTISRDNAKNTIYLQMNSLIPEDTAVYYCAKRRYYRYYYWGQGTQVTVSS,high polyreactivity
4,QVTLVESGGGLVQAGGSLRLSCAASGFTFYIYAMGWYRQAPGKERELVAAISSSGTRTYYADSVKGRFTISRDHAKNTVYLQMNSLKPEDTAVYYCAAALGWYSAFGYWGQGTQVTVSS,high polyreactivity
5,QVWLQESGGGRVQACGSLRLSCAASGTIARDIFMGWYRQAPGKEREFVATIAQGGITNYADSVKGRFTISRDNAKNTVYLQMNSVKPGDTAVYYCAARDGNCYWFYYWGQGTQVTVSS,high polyreactivity
6,QVWLQESRGGLVQASGSLRLSCAASGTISRDIFMGWYRQAPGKEREFVATIAQGGITNYADSVKGRFTISRDNAKNTVYLLMISVKPGDTEVYYCAARDGNCYWFYYWGQGTQVTVSS,high polyreactivity
7,QYQLEDSGGGVVQAGCSLRLSCAASGRTFAYYAMGWYRQAPGKERELVAAISSSGGRTYYADSVKGRFTISRDNAKKTVYLQMNSLIPEDTAVYYCAATSTSGVLYDYWGQGTQVTVSS,high polyreactivity
8,QYQLVESGGGLVQAGGSLRLSCAASGRTFYYNAMGWYRQAPGKETELVASITITDSTNYSDSVKGRFTISRDNANNTVYLQMNSLKPEDTAVYYCAKRGLGTSFYLSDYWGQGTQVTVSS,low polyreactivity
9,RDQHVESGGGLVQAGGSLRLSCAASGRTFVPYAMGWYRQAPGKERELVAAISSGGDTNYADSVKGRFTISRDNAKNTVYLQMNSLKPEDTAVYYFAKDLTQIYYGDDYWGQGTQVTVSS,low polyreactivity
10,RVQLQESGGGLVQAGGSLRLICAASGTNFIRGDMGWYRQAPGKEREFVATIDNGSNTYYADSEKGRFTISRDNAKNAVYLQMNCLKPGDTAVYYCVVDYQLSGRLRYWGQGTQVTLSS,low polyreactivity
11,RVQLQESGGGLVQEGGSLRLSCAPSSTISRDFYMGWYRQAPGKELEFVASITYGASTNYADSVKGRVTISRDNANNTVYLQMNSLKPEDTAVYYSNAKQQPYGGTDSDYWGQGTQVSVSS,low polyreactivity
12,RVQLVESGGGLVQAGGSLRFSCAASGRIFPNNAMGWSSQAPGKARELVAAISRTGGSTYYADSVKGRFTISRDNAKNTVYLQMNSLKPEDTAVYYCAASHARWSPYYSRYYYWGQGTQVTGSS,high polyreactivity
13,RVQLVESGGGLVQAGGSLRLSCAASGRIFAQYPMGWYRKAPRKERELLAAITTTGRTYYADSVKGRFTISRDNAKNTVYLQMNSLKPEDTAVSYCAVGYHAPNVSTSDPRYDYWGQGTQVTVSS,low polyreactivity

# Source: the nanobody polyreactivity screen of Harvey et al. (2022)
